This is an account of results in doi:10.1101/2020.08.13.249979 (bioRxiv, 2020).

Where a chain is given by its changes, count along the chain named. Names and notes keep the numbering of the source. Values joined by “and” are separate entries in the source; they are usually repeats but may differ in a detail not shown here. Equal entries are not always repeated.

Data set [1] concerns the molecule itself. Nature of the data set: cryo-EM structure.
Data set [2] deals with the molecule itself. Briefly: cross-linking.
Data set [3] concerns the molecule itself. Nature of the data set: negative stain EM.

B1: Vipp1/IM30 from Nostoc punctiforme, full-length (amino acids 1-258) (natural protein)
chain: MGLFDRIKRVVSSNLNDLVNKAEDPEKMLEQAILEMQEDLVQLRQGVAQAIAAQKRSEKQYNDAQNEINKWQRNAQLALQKGDENLARQALERKKTYTDTSAALKASLDTQSTQVETLKRNLIQLESKISEAKTKKEMLKARITTAKAQEQLQGMVRGMNTSSAMSAFERMEEKVLMQESRAQALGELAGADLETQFAQLEGGSDVDDELAALKAQMLPPATPVTQAQLPPQQETTPAKSNEVVDAELDSLRKQLDQL
Turning to B1, in data set [1], the “stoichiometry N” value was 84 subunits and 55 subunits to 119 subunits (2×).

B2: Vipp1_(L86C/L193C) (natural protein)
chain: B1 chain with L86C, L193C
Turning to B2, in data set [2], the binding result was “binds”.

B3: Vipp1Δα6_(1-219) (domain or fragment)
chain: MGLFDRIKRVVSSNLNDLVNKAEDPEKMLEQAILEMQEDLVQLRQGVAQAIAAQKRSEKQYNDAQNEINKWQRNAQLALQKGDENLARQALERKKTYTDTSAALKASLDTQSTQVETLKRNLIQLESKISEAKTKKEMLKARITTAKAQEQLQGMVRGMNTSSAMSAFERMEEKVLMQESRAQALGELAGADLETQFAQLEGGSDVDDELAALKAQMLP
On to B3, for which the binding result in data set [3] is recorded as “binds”.
